From publication PMC11079059, “Development of a new affinity maturation protocol for the construction of an internalizing anti-nucleolin antibody library” (Scientific Reports, 2024)

Biological target: T1, nucleolin (Homo sapiens, UniProt P19338)
T1 construct: The cells were not transfected; also called cell surface nucleolin; source: endogenous, on nucleolin-overexpressing MDA-MB-435S cells
Experiment: flow cytometry on cells; 1.5 x 10^5 MDA-MB-435S cells with 1 µg of each purified VHH, 45 min at 4 °C, PBS with 1% BSA; detected with anti-HA-Alexa Fluor 647; MFI normalised to cells with secondary antibody only; a representative experiment
Settings: one partner purified

T1 sequence (P19338 whole entry): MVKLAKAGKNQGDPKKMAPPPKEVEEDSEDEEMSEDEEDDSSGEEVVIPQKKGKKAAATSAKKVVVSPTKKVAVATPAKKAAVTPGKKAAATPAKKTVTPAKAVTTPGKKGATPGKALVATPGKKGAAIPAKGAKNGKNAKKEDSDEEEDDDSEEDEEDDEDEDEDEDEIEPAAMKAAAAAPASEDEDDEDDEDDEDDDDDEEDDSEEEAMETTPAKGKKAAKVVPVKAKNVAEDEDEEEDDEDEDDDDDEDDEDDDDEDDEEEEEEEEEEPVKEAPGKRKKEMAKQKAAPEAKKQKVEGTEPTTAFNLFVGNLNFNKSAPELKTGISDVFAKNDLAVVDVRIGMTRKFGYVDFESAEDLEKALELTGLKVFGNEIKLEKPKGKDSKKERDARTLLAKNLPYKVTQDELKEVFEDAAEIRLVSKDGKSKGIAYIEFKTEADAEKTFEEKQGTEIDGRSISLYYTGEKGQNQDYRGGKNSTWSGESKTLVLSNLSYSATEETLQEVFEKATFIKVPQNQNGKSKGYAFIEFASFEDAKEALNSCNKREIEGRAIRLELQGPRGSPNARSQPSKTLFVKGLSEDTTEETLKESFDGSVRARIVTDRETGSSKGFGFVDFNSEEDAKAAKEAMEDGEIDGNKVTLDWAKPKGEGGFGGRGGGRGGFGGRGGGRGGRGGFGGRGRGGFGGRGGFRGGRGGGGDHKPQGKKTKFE

fold increase in binding (normalised MFI) relative to the reference VHH [fold]	Binder
1.4	VHH clone D10 (VHH, source: ER2738 E. coli, IPTG induction, purified (Dynabeads His-Tag Isolation & Pulldown)) VHH: QVQLQESGGGLVQPGGSLRLSCAASGRASASSARSARAIGWFRQAPGKEREFVARIYWSSGNTYYADSVKGRFAISRDIAKNTVDLTMNNLEPEDTAVYYCAAPQRRSARLSAWGQGTQVTVSS
2	VHH clone D11 (VHH, source: ER2738 E. coli, IPTG induction, purified (Dynabeads His-Tag Isolation & Pulldown)) VHH: QVQLQESGGGLVQPGGSLRLSCAASGRASASSARSARAIGWFRQAPGKEREFVARIYWSSGNTYYADSVKGRFAISRDIAKNTVDLTMNNLEPEDTAVYYCAAPQRRSARLSAWGQGTQVTVSS
